Binding and Kd data for ten substances are collected here from PMC6061880.

Holding throughout (test): EMSA
Details in all cases: 10 mM Tris-Cl pH 7.5, 10 mM MgCl2, 100 mM KCl, 0.5 ug/ul yeast RNA, 7.5% glycerol, SUPERase In; 5 nM RNA; 30 min at 37 C; 6% native PAGE at 4 C

Series [1] has as its system T1, RsmN (Pseudomonas aeruginosa), ORF:fe30c157.
T1 sequence: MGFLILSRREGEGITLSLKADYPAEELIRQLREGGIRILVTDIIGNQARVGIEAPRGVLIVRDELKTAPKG

The target in series [2] is RsmA (Pseudomonas aeruginosa) (UniProt O69078).
Series [3] relates to RsmN (Pseudomonas aeruginosa).

Sequence of RsmA (Pseudomonas aeruginosa) (O69078 whole entry): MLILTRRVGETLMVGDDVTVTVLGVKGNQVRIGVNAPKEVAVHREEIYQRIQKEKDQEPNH

On to “GGGUCAGGACAUUGCGCAGGAAGCGCCAAAGACAAUACGGAAACUCAGGGAAUCCACCAUGGAUGGUGGCGUAGCACGGAUGUCAGGAUAGAGGUCUGCAAAACCCCGCCCAAAAGGCGGGGGGGGGUUUUUUUU [RsmY full length]”, for which the binding entry in series [1] and in series [2] was “binds” throughout. In turn, “GGACAAAAUAAGCAAAUGGAGCGUAUGACCAUGGACAAACCGGCCUCGCGGCAUUUCAGCGUCUUGAUCAUCGAUGAUGAACCCCAGGUGACCUCGGAACUCCGCGAACUGCUGGAAAACGGGGGGGGGUUUUUUUU [pprB leader RNA]” displayed a Kd in series [1] of 0.227 µM. In addition, the binding result in series [2] is “binds”. In turn, pslA RNA (non-specific) displayed a dissociation constant Kd in series [3] above 1 µM.

In series [1], “GGUAACGACUCCAGCACAACAAAAACAAAAUCGCGGAGGCGCAGCUAACUGAUUCUUUUGGAGAGGAGUUGCUGUCGGGACCCGUCCCGCAGCCAGUCGGAAGAAGAAUAAAACUGCCUUGAGGCAGCGCACAGACUGGUUGGAUCGCUCGACGAUCAUGGCAGCAUCAGGGGGGGGGUUUUUUUU [5' CrcZ]” displayed an equilibrium dissociation constant (Kd) of 0.112 µM. Besides, the binding result in series [2] was “no binding”.

Substance 5' CrcZ came in with a dissociation constant (Kd) in series [3] of 0.112 µM. This lies in the sub-micromolar range. As for “GGAAACUCUGUCCGCUGUGAUGGAUAACGAAGCGGAUGAACUCGAGUUGCGGCGGGUGCUCGCAGCUUGCGGCGAGGAUGCCGAGCUGCGUUCCACCUGGUCGCGUUACCAGUUGGCGCGGUCCGUCAUGCACCGCGAGCCUACCCUGCCGAAGCUGGAUAUCGCUGCGGCGGUCUCUGCUGCCCUGGCCGACGAGGCCGCUCCGCCGAAAGCGGAGAAGGGACCGUGGCGGAUGGUCGGUCGGGGGGGGGUUUUUUUU [mucA internal RNA]”, the equilibrium dissociation constant (Kd) in series [1] is 0.148 µM; in series [2] it was “binds”.

In series [3], mucA internal RNA came in with a Kd of 0.148 µM.

In the case of pprB leader RNA, the Kd in series [3] turned out to be 0.227 µM. For “GGCAUCAGCGACCAAAGCAAUCCGUUUGCUAUUGAACUCCCAGCCUGGGAGAUAUCCCUGAAGCGACUGGCUCAAGGGACGGGUCGACAAACAAAAACAACAAGCCCGAAAUCAUAAUAAAAACAAAGCACGCACCUACUUGGGGGGGGGUUUUUUUU [3' CrcZ]”, the figures for the binding result in series [1] and in series [2] were “no binding” and “binds”, respectively.

Turning to fhA1 leader RNA, in series [3], the equilibrium dissociation constant (Kd) was 0.061 µM.
